Measured values taken from doi:10.1101/774158.

Legend:
CDA-ZnF-KLF1 = CDA-ZnF-KLF1 (mouse, UniProt P46099 275-358, E321K); experiment: EMSA
WT-ZnF-KLF1 = WT-ZnF-KLF1 (mouse, UniProt P46099 275-358); experiment: EMSA
Chain of WT-ZnF-KLF1 (P46099 275-358): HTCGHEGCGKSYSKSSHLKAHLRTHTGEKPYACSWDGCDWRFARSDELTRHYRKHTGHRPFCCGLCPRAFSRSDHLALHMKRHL

Chain of CDA-ZnF-KLF1 (P46099 275-358 E321K): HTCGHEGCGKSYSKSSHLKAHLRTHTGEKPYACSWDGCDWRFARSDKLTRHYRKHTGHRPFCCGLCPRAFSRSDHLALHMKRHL

B1: 9xG (CDA-GGG) (dsDNA)
DNA 1: AGCTAAGGGGGGGGGCA
DNA 2: AGCTTGCCCCCCCCCTT
B1 was tested, and the Kd (CDA-ZnF-KLF1) was 0.696 ± 0.0711 µM and the Kd (WT-ZnF-KLF1) was roughly 4.99 µM.
